# Assay results: paper PMC10521137
# Molecular target: Rad53 FHA1 domain, 1-165 (UniProt P22216)
# Experiment: biotin-peptide streptavidin pulldown, Coomassie stain
# Conditions: reference: unphosphorylated peptide (peptide 1); sites T402
substance,measurement,value
Pol1 (catalytic subunit of DNA polymerase alpha) 393-412 (from UniProt P13382) pT402 peptide (peptide 2),binding against the reference,gained
